Patent US20210361750A1, “Anti-Viral Lactoferrin Facemask” (priority 2020, published 2021)

Experiments:
SARS-CoV-2 [1] = assay: SARS-CoV-2 cytopathic effect inhibition by lactoferrin at various pH levels in Vero E6 cells; format: cell-based, SARS-CoV-2 (strain COV2019 Italy/INM11); details: for average neutralizing titer: lactoferrin 10 mg/mL
Vero E6 cells = details: control without virus, 10 mg/mL
SARS-CoV-2 [2] = details: patients with SARS-CoV-2, after oral administration; cited from earlier work
Vero cells = details: 10 mg/mL lactoferrin, incubated up to 72 hours
SARS-CoV-2 [3] = assay: Cyclodextrin testing: antiviral activity against SARS-CoV-2 in Vero E6 cells (CPE); format: cell-based; details: pH 7; lactoferrin alone 10 mg/mL, cyclodextrin alone 10 mg/mL, or lactoferrin 5 mg/mL + cyclodextrin 10 mg/mL

B1: lactoferrin (protein, UniProt P02788 20-710, looked up)
Lactotransferrin: GRRRSVQWCAVSQPEATKCFQWQRNMRKVRGPPVSCIKRDSPIQCIQAIAENRADAVTLDGGFIYEAGLAPYKLRPVAAEVYGTERQPRTHYYAVAVVKKGGSFQLNELQGLKSCHTGLRRTAGWNVPIGTLRPFLNWTGPPEPIEAAVARFFSASCVPGADKGQFPNLCRLCAGTGENKCAFSSQEPYFSYSGAFKCLRDGAGDVAFIRESTVFEDLSDEAERDEYELLCPDNTRKPVDKFKDCHLARVPSHAVVARSVNGKEDAIWNLLRQAQEKFGKDKSPKFQLFGSPSGQKDLLFKDSAIGFSRVPPRIDSGLYLGSGYFTAIQNLRKSEEEVAARRARVVWCAVGEQELRKCNQWSGLSEGSVTCSSASTTEDCIALVLKGEADAMSLDGGYVYTAGKCGLVPVLAENYKSQQSSDPDPNCVDRPVEGYLAVAVVRRSDTSLTWNSVKGKKSCHTAVDRTAGWNIPMGLLFNQTGSCKFDEYFSQSCAPGSDPRSNLCALCIGDEQGENKCVPNSNERYYGYTGAFRCLAENAGDVAFVKDVTVLQNTDGNNNEAWAKDLKLADFALLCLDGKRKPVTEARSCHLAMAPNHAVVSRMDKVERLKQVLLHQQAKFGRNGSDCPDKFCLFQSETKNLLFNDNTECLARLHGKTTYEKYLGPQYVAGITNLKKCSTSPLLEACEFLRK
notes: stock solution in water at 10 mg/mL
inhibitory effect on viral infection in Vero cells (SARS-CoV-2 [1]; cells pre-incubated with lactoferrin 0.313-10 mg/mL for one hour): showed an inhibitory effect | average neutralizing titer (SARS-CoV-2 [1]; pH 4): 452 | average neutralizing titer (SARS-CoV-2 [1]; pH 7): 40 | lactoferrin concentration of maximum inhibitory effect (SARS-CoV-2 [1]; pH 4, 5, and 6): 5 mg/mL | antiviral efficacy (SARS-CoV-2 [1]; pH 7): consistent low efficacy | inhibitory effect on viral infection (SARS-CoV-2 [1]; without the pre-incubation step, any pH): no inhibitory effect | cytopathic effect on the cells (Vero E6 cells): neither the lactoferrin alone (10 mg/mL) or the cyclodextrin alone (10 mg/mL) had a cytopathic effect | time to reduced severity and duration of disease (SARS-CoV-2 [2]): 4 to 5 days | cellular cytotoxicity (Vero cells): No cellular cytotoxicity | antiviral activity (cytopathic effect) (SARS-CoV-2 [3]): did not show antiviral activity
